Experimental data taken from doi:10.1101/2025.05.09.653011 (bioRxiv, 2025).

How the values were obtained:
[1] = target: Human wild-type peptidylprolyl cis-trans isomerase A (PPIA) (human, UniProt P62937 2-165); assay: NMR titration
Human PPIA K76E mutant = Human PPIA K76E mutant (human, UniProt P62937 2-165, K76E); assay: NMR titration
Sequence of Human PPIA K76E mutant (P62937 2-165 K76E): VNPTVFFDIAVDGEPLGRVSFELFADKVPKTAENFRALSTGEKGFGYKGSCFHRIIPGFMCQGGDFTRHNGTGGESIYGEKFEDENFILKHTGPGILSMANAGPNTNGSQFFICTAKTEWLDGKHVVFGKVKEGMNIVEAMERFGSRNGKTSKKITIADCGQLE

Sequence of Human wild-type peptidylprolyl cis-trans isomerase A (PPIA) (P62937 2-165): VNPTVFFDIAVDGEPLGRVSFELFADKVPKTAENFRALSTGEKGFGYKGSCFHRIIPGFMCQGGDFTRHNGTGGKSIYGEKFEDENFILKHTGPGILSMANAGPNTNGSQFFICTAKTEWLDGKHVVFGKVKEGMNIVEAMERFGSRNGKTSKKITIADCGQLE

Ac-FGPDLPAGD-NH2 [Ac-FGPDLPAGD-NH2]: binds [1]; binds (Human PPIA K76E mutant).
